The data set concerns the molecule itself. In words: SEC-MALS; 50 µg of each sample, Superdex 200 increase 10/300, 30 mM HEPES pH 7.5, 300 mM NaCl, 5 % glycerol, 0.5 mM TCEP. For orientation: Size exclusion chromatography separates by hydrodynamic size, large species first.

B1: PARP15^FL WT, full-length long isoform 1 of human PARP15 (enzyme, UniProt Q460N3 1-678, looked up)
chain: MAAPGPLPAAALSPGAPTPRELMHGVAGVTSRAGRDREAGSVLPAGNRGARKASRRSSSRSMSRDNKFSKKDCLSIRNVVASIQTKEGLNLKLISGDVLYIWADVIVNSVPMNLQLGGGPLSRAFLQKAGPMLQKELDDRRRETEEKVGNIFMTSGCNLDCKAVLHAVAPYWNNGAETSWQIMANIIKKCLTTVEVLSFSSITFPMIGTGSLQFPKAVFAKLILSEVFEYSSSTRPITSPLQEVHFLVYTNDDEGCQAFLDEFTNWSRINPNKARIPMAGDTQGVVGTVSKPCFTAYEMKIGAITFQVATGDIATEQVDVIVNSTARTFNRKSGVSRAILEGAGQAVESECAVLAAQPHRDFIITPGGCLKCKIIIHVPGGKDVRKTVTSVLEECEQRKYTSVSLPAIGTGNAGKNPITVADNIIDAIVDFSSQHSTPSLKTVKVVIFQPELLNIFYDSMKKRDLSASLNFQSTFSMTTCNLPEHWTDMNHQLFCMVQLEPGQSEYNTIKDKFTRTCSSYAIEKIERIQNAFLWQSYQVKKRQMDIKNDHKNNERLLFHGTDADSVPYVNQHGFNRSCAGKNAVSYGKGTYFAVDASYSAKDTYSKPDSNGRKHMYVVRVLTGVFTKGRAGLVTPPPKNPHNPTDLFDSVTNNTRSPKLFVVFFDNQAYPEYLITFTA
modifications: weakly MARylated from expression in Sf21 insect cells
notes: PARP15, human, full-length canonical isoform 1 (the longer isoform, both macrodomains present); Cloned in pFastBac-His-MBP (#30116); tags cleaved with TEV protease; source: Sf21 insect cells (baculovirus), purified (Ni-NTA, amylose resin, TEV cleavage, SEC)
As usually defined, the stoichiometry N is a count of units in the complex or per binding partner. With B1, the “stoichiometry N” value is around 2.

The values are drawn from paper doi:10.64898/2025.12.15.694324, “Dimerization of human PARP15 is required for NAD^+ binding and automodification” (bioRxiv, 2025).
